Results taken from article PMC3355305, “Localized Dimerization and Nucleoid Binding Drive Gradient Formation by the Bacterial Cell Division Inhibitor MipZ” (Molecular Cell, 2012).
Read-outs that look alike come from different tables or passages of the source.

Target: MipZ dimer
Experiment: Effect of ParB and parS-containing plasmid DNA on the ATPase activity of MipZ
Assay type: biochemical, Caulobacter crescentus
Details: for Kd: read-out: K
Excerpt: Figure 3 Interaction of MipZ with FtsZ and ParB (A) Effect of different mutations on the activity of MipZ. Strains MT177 (WT), DK2 (K13A), MT178 (G14V), MT179 (K18Q), and MT197 (D42A) were cultivated for 8 hr in conditions that prevent expression of wild-type mipZ while inducing expression of the indicated mipZ-yfp allele (the scale bar represents 2 μm). (B) Effect of MipZ and its mutant derivatives on the GTPase activity of FtsZ. Shown are the turnover numbers (kcat) of FtsZ in the absence of additional proteins (–) or in the presence of different MipZ variants or BSA. Data represent the average of at least three independent experiments (±SD). (C and D) SPR analysis of the interaction between MipZ and ParB. ParB (3800 RU) was immobilized on a sensor chip and probed with the indicated MipZ proteins (6 μM) in the presence of ADP (C) or ATP (D). (E) Colocalization of mutant MipZ variants with ParB. Strains DK3 (K13A), DK5 (G14V), DK6 (K18Q), and DK7 (D42A) were induced for 8 hr to synthesize CFP-ParB and the indicated MipZ-YFP variants in place of wild-type MipZ (the scale bar represents 2 μm). […] (F) Two-hybrid analysis of the interaction between MipZ and ParB. E. coli BTH101 was transformed with pairs of plasmids encoding the indicated derivatives of the T18 and T25 fragments of adenylate cyclase, respectively. Interaction is evidenced by the formation of red colonies. Positive control (+): T25-zip:T18-zip. (G) Effect of ParB on the ATPase activity of MipZ. The average turnover number (kapp) of MipZ was determined over a range of different MipZ concentrations. When appropriate, the reactions were supplemented with ParB and/or parS-containing plasmid DNA (pMT428; 3.6 kb). The data were approximated by the model used in Figure 2F, yielding the following K and kcat values: MipZ alone (7.1 μM and 0.61 min^−1), + ParB (2.6 μM and 0.77 min^−1), + DNA (6.0 μM and 1.5 min^−1), + ParB and DNA (1.6 μM and 1.6 min^−1). See also Figure S4.
Previous work has shown that, in the presence of parS-containing DNA, ParB stimulates the ATPase activity of ParA/Soj up to 60-fold ([Leonard et al., 2005; Scholefield et al., 2011]), probably by accelerating the rate of nucleotide hydrolysis. […] To clarify this issue, we reanalyzed the concentration dependence of MipZ's ATPase activity (compare Figure 2F) in the presence of both ParB and/or a plasmid that carried a chromosomal fragment containing all predicted C. crescentus parS sites (Figure 3G). […] Consequently, the MipZ dimer might be able to interact with DNA independently of ParB (as detailed below), leading to conformational adjustments that enhance its hydrolytic potential. […] Collectively, these findings argue against a role of ParB as an ATPase-activating factor. […]
obtained from crystals flash frozen in a solution of 95% 2 mM, sa mp le s were taken and analyzed for the amount ethanol/50 mM Tris (pH 8.5), and collected at ID23-2, of [α-32P]-GDP produced in the reaction as described ESRF (Grenoble, France). For apo-MipZ in crystal above. form 2, 768 standard conditions were screened in 200 nl To analyze the concentration dependence of MipZ’s sitting drops using a Microsys 4004 Cartesian robotics ATPase activity, varying amounts of MipZ were system and MipZ at a concentration of 10 mg/ml. incubated in buffer P containing 2 mM [α-32P]-ATP and Crystals obtained in a buffer containing 100 mM Hepes 0.3 mg/ml bovine serum albumin and assayed for (pH 7.5), 10% PEG 10000, 4% ethylene glycol and 30% hydrolytic activity as described above. glycerol were flash-frozen, and data were collected at To determine the effect of ParB on MipZ’s ATPase ID23-1, ESRF. activity, varying amounts of MipZ were incubated with All crystals were indexed and integrated using the ParB (4.5 µM) and/or plasmid pMT428 (3.6 kb, 0.2 MOSFLM package and further processed using the µM), which bears a chromosomal fragment containing […]

B1: MipZ: P loop ATPase and cell division inhibitor of Caulobacter crescentus; hexahistidine-tagged in vitro, YFP fusion in FRAP (protein)
chain: MAETRVIVVGNEKGGAGKSTIAVHLVTALLYGGAKVAVIDLDLRQRTSARFFENRRAWLDNKKIELPEPLALNLSDNDVALAERPEEEQVAGFEAAFARAMAECDFILIDTPGGDSAITRMAHGRADLVVTPMNDSFVDFDMLGTVDPVTLELTKPSLYSLTVWEGRKQRALSGQRQAMDWVVLRNRLATTEARNRKRLEDRLNALAKRVGFRIGPGLRDRVIYRELFPFGLTIADLSPQVRPVPVSLQHLAARQELRALMHSLGLSAYSGETMLAAQ
modifications: left off: His6, end not stated, state not stated
notes: hexahistidine-tagged in vitro, YFP fusion in FRAP
Question: With B1 as the molecule, how does the Kd (+ DNA (pMT428, 0.2 µM)) read?
Answer: 6 µM

Question: What about the Kd (+ ParB (4.5 µM)) of the same molecule?
Answer: 2.6 µM

Question: And the Kd (+ ParB and DNA)?
Answer: 1.6 µM

Question: And the kcat (MipZ alone)?
Answer: 0.0102 s⁻¹

Question: What about the Kd (MipZ alone) of the same molecule?
Answer: 7.1 µM

Question: What about the “increase in the catalytic activity of the dimeric complex (kcat)” value (upon addition of DNA) of the same molecule?
Answer: ~2 fold

Question: What about the “decrease in the apparent equilibrium dissociation constant of the dimeric complex” value (upon addition of ParB) of the same molecule?
Answer: ~4 fold
